Test results reported in the RNAGym collection of RNA variant scans (doi:10.1073/pnas.2313332121).
Fewer inactive variants are shown than the library holds.

B1: TPR 5TU (parent)
chain: GGAUCUUCUCGAUCUAACAAAAAAGACAAAUCUGCCACAAAGCUUGAGAGCAUCUUCGGAUGCAGAGGCGGCAGCCUUCGGUGGCGCGAUAGCGCCAACGUUCUCAACUAUGACACGCAAAACGCGUGCUCCGUUGAAUGGAGUUUAUCAUG

Variants of: B1
Test: polymerase ribozyme fitness, log enrichment relative to wild type (log ratio); higher = more active; in vitro selection for triplet polymerase activity
Procedure, shortened: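 Each subunit of a heterodimeric triplet polymerase ribozyme was mutagenized into a library by PCR, transcribed, and subjected to one round of in vitro selection, run in triplicate. Libraries were annealed with a biotinylated primer, the partner subunit and triplets, incubated frozen at −7 °C, and extended constructs were gel-excised, captured on streptavidin beads and recovered by RT-PCR. Input and output libraries were sequenced on Illumina, keeping genotypes with ≥10 input reads and ≥1 read per output. Fitness is log base 2 of genotype enrichment divided by wild-type enrichment, from inverse-variance-weighted replicate averages.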

First: U7G C8G U45G A66U C85U A138U
Second: U4G C5A U55G
The “polymerase ribozyme fitness (log ratio)” value of the first is lower: at most -4.2 for the first, -0.269 for the second.

Going from C96U G143C U146C to A47G G84A G128C, the “polymerase ribozyme fitness (log ratio)” value falls from -1.75 to -3.37.

C8A A16U A17U A26U G80C C87U U139G U151A and C10U A30U A49C C87U A89G C95G U104C C116U A119U G136C cannot be ordered by “polymerase ribozyme fitness (log ratio)” value: at most -4.2 for the first, at most -4.2 for the second.

First: A41C C85A C105G G126U
Second: A24U G67C C76G G83U
The “polymerase ribozyme fitness (log ratio)” value of the first is lower: -3.3 for the first, -2.24 for the second.

A22C G50A C63A C69G A89G U127G G141U A142U and G34U C79G G92U C93G U109A G143C cannot be ordered by “polymerase ribozyme fitness (log ratio)” value: at most -4.2 for the first, at most -4.2 for the second.

Compared with A19U C63U C96U C105G C116A, U53A C96A is higher in “polymerase ribozyme fitness (log ratio)” value: -2.98 for the first, -2.37 for the second.

Compared with C69A C118G, U55A C87G C149G is lower in “polymerase ribozyme fitness (log ratio)” value: -2.21 for the first, at most -4.2 for the second.

Compared with G11C C51U C85U G140C, C8U A16G A21G A40U is higher in “polymerase ribozyme fitness (log ratio)” value: at most -4.2 for the first, -4.04 for the second.

Compared with A19G U109G C118G U144A, G11C C75U is higher in “polymerase ribozyme fitness (log ratio)” value: -3.72 for the first, -1.85 for the second.

Compared with G92C U146A, C54A G59U A91G U135A is lower in “polymerase ribozyme fitness (log ratio)” value: -0.323 for the first, -3.95 for the second.

C129G U134G and C32G A37G C95U are within 0.2 log units of each other in “polymerase ribozyme fitness (log ratio)” value: -3.81 for the first, -3.7 for the second.

First: A60G A115G U144C U146A A150U
Second: C27U A52C A60U C76U G84U C96G U109C
The “polymerase ribozyme fitness (log ratio)” value of the first is higher: -3.85 for the first, at most -4.2 for the second.

Going from U55C C85U A97U to C93A C96A, the “polymerase ribozyme fitness (log ratio)” value falls from -1.16 to -3.78.

Going from C36U C54A G58A G70A G84A C95A A115U G143U to C18G A19C G88A G92U C95U U134A, the “polymerase ribozyme fitness (log ratio)” value rises from at most -4.2 to -4.03.

Going from A3G U13A U56A C96A A138G to U61C U104G G126C, the “polymerase ribozyme fitness (log ratio)” value rises from at most -4.2 to -2.04.

Compared with A60C C85A C116A, U44A G58A C93U C96G A97G A98U A119G U144C A150U is lower in “polymerase ribozyme fitness (log ratio)” value: -1.6 for the first, at most -4.2 for the second.

A29C C54A G70U and U6G A19U G50C G88U C99G cannot be ordered by “polymerase ribozyme fitness (log ratio)” value: at most -4.2 for the first, at most -4.2 for the second.

A24U A66G and A24G G94C are within 0.2 log units of each other in “polymerase ribozyme fitness (log ratio)” value: -3.16 for the first, -3.21 for the second.

Compared with C51A C54U A91U G100U G124A U135C, A21U A26C is higher in “polymerase ribozyme fitness (log ratio)” value: at most -4.2 for the first, -1.48 for the second.

Compared with C79U C93A A98U A122U, C54G C95U is higher in “polymerase ribozyme fitness (log ratio)” value: -4 for the first, -2.35 for the second.

Going from U55A U101G to A28C, the “polymerase ribozyme fitness (log ratio)” value falls from -0.568 to -3.75.

Compared with G81U, C87A C93U C95U G100A C116U A121G C129A U130G is lower in “polymerase ribozyme fitness (log ratio)” value: -0.702 for the first, at most -4.2 for the second.

A3G C10G A41G C76A U145A and G48A U61A G71A C85G A107U G124U G141U cannot be ordered by “polymerase ribozyme fitness (log ratio)” value: at most -4.2 for the first, at most -4.2 for the second.

First: A19G U53G A120U
Second: U31G U148C
The “polymerase ribozyme fitness (log ratio)” value of the first is lower: -2.57 for the first, -2.37 for the second.

Compared with G68A C85U, G59A C116U is higher in “polymerase ribozyme fitness (log ratio)” value: -3.48 for the first, -0.293 for the second.

First: A41U G83A A150U
Second: G88U G141U
The “polymerase ribozyme fitness (log ratio)” value of the first is higher: -0.63 for the first, -3.23 for the second.

C75A C95G C96U and U33G G46C G71A U78G U90G A110C U127C G141C cannot be ordered by “polymerase ribozyme fitness (log ratio)” value: at most -4.2 for the first, at most -4.2 for the second.

A66G C85U U111G U146A and A19U C27U C36A G42C G86A G100C C118G cannot be ordered by “polymerase ribozyme fitness (log ratio)” value: at most -4.2 for the first, at most -4.2 for the second.

A17U U33A C36A C76A G94A G117U C129U and U13G A47G U55A C87U C96U U139G cannot be ordered by “polymerase ribozyme fitness (log ratio)” value: at most -4.2 for the first, at most -4.2 for the second.

Going from A16C G34U C93U C105U G112A to C27G C38U A49C G65C C87G C114A A119G U145A, the “polymerase ribozyme fitness (log ratio)” value rises from at most -4.2 to -4.07.

First: U31C U44A C54A C76G C95G C105G A107G
Second: C51U C108U
The “polymerase ribozyme fitness (log ratio)” value of the first is lower: -4.01 for the first, -3.72 for the second.

First: C38U U145A
Second: A3U C96A
The “polymerase ribozyme fitness (log ratio)” value of the first is higher: 0.631 for the first, -0.199 for the second.

Compared with C95U A142U U145G, U33A C96A is lower in “polymerase ribozyme fitness (log ratio)” value: -2.47 for the first, at most -4.2 for the second.

Compared with C114U U135C, C76A C123U U134A is higher in “polymerase ribozyme fitness (log ratio)” value: -2.95 for the first, -1.5 for the second.

Compared with C38G C43U G81U G86U A98G C103G A150G U151C, U13A A52G U82A is higher in “polymerase ribozyme fitness (log ratio)” value: at most -4.2 for the first, -0.721 for the second.

Compared with U4C C76A C93U G141C, A39G A60C is higher in “polymerase ribozyme fitness (log ratio)” value: at most -4.2 for the first, -3.03 for the second.

First: A47G G84U C149U
Second: C14G A41U G62C C95U C96A G112U A142U U146A A150G
The “polymerase ribozyme fitness (log ratio)” value of the first is higher: -3.35 for the first, at most -4.2 for the second.

Going from G84A U146A to G11U A41U C93U C99A U104G C118U G140U G152U, the “polymerase ribozyme fitness (log ratio)” value falls from -0.719 to -4.02.

Compared with G50C U78A G92A, C76U A119G G126U U139G is higher in “polymerase ribozyme fitness (log ratio)” value: at most -4.2 for the first, -0.649 for the second.

First: C8U G88U C93U
Second: U56G C116G
The “polymerase ribozyme fitness (log ratio)” value of the first is lower: -4.14 for the first, -0.0028 for the second.

A28U U77C and A20U G48A G84A G152C cannot be ordered by “polymerase ribozyme fitness (log ratio)” value: at most -4.2 for the first, at most -4.2 for the second.

For U9C C54U C85A G136C, the “polymerase ribozyme fitness (log ratio)” value was at most -4.2.
